Results reported in patent US20040006018A1 (Genentech, published 2004).
One block for each binder: values may come before it.

Tests used:
[1] = biological target: T1, Mouse LIF (leukemia inhibitory factor) (mouse, UniProt P09056 24-203); assay: 0.042 nM 125I-mouse LIF on M1 cells competed by unlabeled LIF, Scatchard, one-site fit
Text: (§1) Shown are competition and Scatchard (insert) plots of the data.

[2] = biological target: T1, Mouse LIF (leukemia inhibitory factor); assay: Scatchard analysis of binding to M1 cells, summary over both labeled ligands
[3] = biological target: T1, Mouse LIF (leukemia inhibitory factor); assay: 0.047 nM 125I-mouse CT-1 on M1 cells competed by unlabeled LIF, Scatchard, one-site fit
Text: as §1

[4] = biological target: T1, Mouse LIF (leukemia inhibitory factor); assay: competition for 125I-human LIF binding to Hela cells
[5] = biological target: T1, Mouse LIF (leukemia inhibitory factor); assay: binding of LIF to His-tagged soluble LIF receptor on Ni-NTA agarose

- Kd [1]: 0.26 nM
- Kd [2]: ~0.2 nM
- Kd [3]: 0.19 nM
B1: Mouse LIF receptor on mouse M1 cells (LIF receptor complex with gp130) (receptor)
chain 1: LKRGVQDLKCTTNNMRVWDCTWPAPLGVSPGTVKDICIKDRFHSCHPLETTNVKIPALSPGDHEVTINYLNGFQSKFTLNEKDVSLIPETPEILDLSADFFTSSLLLKWNDRGSALPHPSNATWEIKVLQNPRTEPVALVLLNTMLSGKDTVQHWNWTSDLPLQCATHSVSIRWHIDSPHFSGYKEWSDWSPLKNISWIRNTETNVFPQDKVVLAGSNMTICCMSPTKVLSGQIGNTLRPLIHLYGQTVAIHILNIPVSENSGTNIIFITDDDVYGTVVFAGYPPDVPQKLSCETHDLKEIICSWNPGRITGLVGPRNTEYTLFESISGKSAVFHRIEGLTNETYRLGVQMHPGQEIHNFTLTGRNPLGQAQSAVVINVTERVAPHDPTSLKVKDINSTVVTFSWYLPGNFTKINLLCQIEICKANSKKEVRNATIRGAEDSTYHVAVDKLNPYTAYTFRVRCSSKTFWKWSRWSDEKRHLTTEATPSKGPDTWREWSSDGKNLIVYWKPLPINEANGKILSYNVSCSLNEETQSVLEIFDPQHRAEIQLSKNDYIISVVARNSAGSSPPSKIASMEIPNDDITVEQAVGLGNRIFLTWRHDPNMTCDYVIKWCNSSRSEPCLLDWRKVPSNSTETVIESDQFQPGVRYNFYLYGCTNQGYQLLRSIIGYVEELAPIVAPNFTVEDTSADSILVKWDDIPVEELRGFLRGYLFYFQKGERDTPKTRSLEPHHSDIKLKNITDISQKTLRIADLQGKTSYHLVLRAYTHGGLGPEKSMFVVTKENSVGLIIAILIPVAVAVIVGVVTSILCYRKREWIKETFYPDIPNPENCKALQFQKSVCEGSNALKTLEMNPCTPNNVEVLESRSIVPKIEDTEIISPVAERPGERSEVDPENHVVVSYCPPIIEEEITNPAADEVGGASQVVYIDVQSMYQPQAKAEEEQDVDPVVVAGYKPQMRLPISPAVEDTAAEDEEGKTAGYRPQANVNTWNLVSPDSPRSTDSNNEVVSFGSPCSINSRQFLIPPKDEDSPKSNGGGWSFTNFFQNKPND
chain 2: QLLEPCGYIYPEFPVVQRGSNFTAICVLKEACLQHYYVNASYIVWKTNHAAVPREQVTVINRTTSSVTFTDVVLPSVQLTCNILSFGQIEQNVYGVTMLSGFPPDKPTNLTCIVNEGKNMLCQWDPGRETYLETNYTLKSEWATEKFPDCQSKHGTSCMVSYMPTYYVNIEVWVEAENALGKVSSESINFDPVDKVKPTPPYNLSVTNSEELSSILKLSWVSSGLGGLLDLKSDIQYRTKDASTWIQVPLEDTMSPRTSFTVQDLKPFTEYVFRIRSIKDSGKGYWSDWSEEASGTTYEDRPSRPPSFWYKTNPSHGQEYRSVRLIWKALPLSEANGKILDYEVILTQSKSVSQTYTVTGTELTVNLTNDRYVASLAARNKVGKSAAAVLTIPSPHVTAAYSVVNLKAFPKDNLLWVEWTPPPKPVSKYILEWCVLSENAPCVEDWQQEDATVNRTHLRGRLLESKCYQITVTPVFATGPGGSESLKAYLKQAAPARGPTVRTKKVGKNEAVLAWDQIPVDDQNGFIRNYSISYRTSVGKEMVVHVDSSHTEYTLSSLSSDTLYMVRMAAYTDEGGKDGPEFTFTTPKFAQGEIEAIVVPVCLAFLLTTLLGVLFCFNKRDLIKKHIWPNVPDPSKSHIAQWSPHTPPRHNFNSKDQMYSDGNFTDVSVVEIEANNKKPCPDDLKSVDLFKKEKVSTEGHSSGIGGSSCMSSSRPSISSNEENESAQSTASTVQYSTVVHSGYRHQVPSVQVFSRSESTQPLLDSEERPEDLQLVDSVDGGDEILPRQPYFKQNCSQPEACPEISHFERSNQVLSGNEEDFVRLKQQQVSDHISQPYGSEQRRLFQEGSTADALGTGADGQMERFESVGMETTIDEEIPKSYLPQTVRQGGYMPQ
notes: whole, on cells; Endogenous receptor on M1 cells; also called LIFRβ

- binding result [4]: no binding
B2: Human LIF receptor on human Hela cells (receptor)
chain: QKKGAPHDLKCVTNNLQVWNCSWKAPSGTGRGTDYEVCIENRSRSCYQLEKTSIKIPALSHGDYEITINSLHDFGSSTSKFTLNEQNVSLIPDTPEILNLSADFSTSTLYLKWNDRGSVFPHRSNVIWEIKVLRKESMELVKLVTHNTTLNGKDTLHHWSWASDMPLECAIHFVEIRCYIDNLHFSGLEEWSDWSPVKNISWIPDSQTKVFPQDKVILVGSDITFCCVSQEKVLSALIGHTNCPLIHLDGENVAIKIRNISVSASSGTNVVFTTEDNIFGTVIFAGYPPDTPQQLNCETHDLKEIICSWNPGRVTALVGPRATSYTLVESFSGKYVRLKRAEAPTNESYQLLFQMLPNQEIYNFTLNAHNPLGRSQSTILVNITEKVYPHTPTSFKVKDINSTAVKLSWHLPGNFAKINFLCEIEIKKSNSVQEQRNVTIKGVENSSYLVALDKLNPYTLYTFRIRCSTETFWKWSKWSNKKQHLTTEASPSKGPDTWREWSSDGKNLIIYWKPLPINEANGKILSYNVSCSSDEETQSLSEIPDPQHKAEIRLDKNDYIISVVAKNSVGSSPPSKIASMEIPNDDLKIEQVVGMGKGILLTWHYDPNMTCDYVIKWCNSSRSEPCLMDWRKVPSNSTETVIESDEFRPGIRYNFFLYGCRNQGYQLLRSMIGYIEELAPIVAPNFTVEDTSADSILVKWEDIPVEELRGFLRGYLFYFGKGERDTSKMRVLESGRSDIKVKNITDISQKTLRIADLQGKTSYHLVLRAYTDGGVGPEKSMYVVTKENSVGLIIAILIPVAVAVIVGVVTSILCYRKREWIKETFYPDIPNPENCKALQFQKSVCEGSSALKTLEMNPCTPNNVEVLETRSAFPKIEDTEIISPVAERPEDRSDAEPENHVVVSYCPPIIEEEIPNPAADEAGGTAQVIYIDVQSMYQPQAKPEEEQENDPVGGAGYKPQMHLPINSTVEDIAAEEDLDKTAGYRPQANVNTWNLVSPDSPRSIDSNSEIVSFGSPCSINSRQFLIPPKDEDSPKSNGGGWSFTNFFQNKPND
notes: whole, on cells; Endogenous receptor on cells; other subunits (gp130) not examined on these cells

- Kd [5]: 1.5 nM
B3: Soluble mouse LIF receptor (extracellular domain, amino acids 1-826, with a C-terminal tag of 6 histidine residues) (receptor)
chain: LKRGVQDLKCTTNNMRVWDCTWPAPLGVSPGTVKDICIKDRFHSCHPLETTNVKIPALSPGDHEVTINYLNGFQSKFTLNEKDVSLIPETPEILDLSADFFTSSLLLKWNDRGSALPHPSNATWEIKVLQNPRTEPVALVLLNTMLSGKDTVQHWNWTSDLPLQCATHSVSIRWHIDSPHFSGYKEWSDWSPLKNISWIRNTETNVFPQDKVVLAGSNMTICCMSPTKVLSGQIGNTLRPLIHLYGQTVAIHILNIPVSENSGTNIIFITDDDVYGTVVFAGYPPDVPQKLSCETHDLKEIICSWNPGRITGLVGPRNTEYTLFESISGKSAVFHRIEGLTNETYRLGVQMHPGQEIHNFTLTGRNPLGQAQSAVVINVTERVAPHDPTSLKVKDINSTVVTFSWYLPGNFTKINLLCQIEICKANSKKEVRNATIRGAEDSTYHVAVDKLNPYTAYTFRVRCSSKTFWKWSRWSDEKRHLTTEATPSKGPDTWREWSSDGKNLIVYWKPLPINEANGKILSYNVSCSLNEETQSVLEIFDPQHRAEIQLSKNDYIISVVARNSAGSSPPSKIASMEIPNDDITVEQAVGLGNRIFLTWRHDPNMTCDYVIKWCNSSRSEPCLLDWRKVPSNSTETVIESDQFQPGVRYNFYLYGCTNQGYQLLRSIIGYVEELAPIVAPNFTVEDTSADSILVKWDDIPVEELRGFLRGYLFYFQKGERDTPKTRSLEPHHSDIKLKNITDISQKTLRIADLQGKTSYHLVLRAYTHGGLGPEKSMFVVTKEHHHHHH
notes: range 44-826; Expressed in human 293 cells, purified on Ni-NTA agarose; single band of 120 kDa; also called smLIFR; soluble LIF receptor
